Test results reported in PMC12442453 (2025).

Target: T1, human EPOR ectodomain (ECD) fused to a human Fc domain (EPOR-Fc) (human, UniProt P19235 25-250)
T1 chain: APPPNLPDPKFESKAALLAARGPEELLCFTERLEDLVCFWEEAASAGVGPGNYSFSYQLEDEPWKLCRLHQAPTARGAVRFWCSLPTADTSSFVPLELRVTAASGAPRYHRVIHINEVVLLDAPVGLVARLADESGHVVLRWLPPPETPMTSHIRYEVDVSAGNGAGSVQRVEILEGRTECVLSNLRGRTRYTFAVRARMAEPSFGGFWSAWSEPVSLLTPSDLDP
Experiment: ELISA

EC50: 0.9 nM
B1: Db-Fc 1.1 (Fc fusion)
chain 1: EVQLVESGGGLVQPGGSLRLSCAASGFNLRSYYMHWVRQAPGKGLEWVASISPYYSYTYYADSVKGRFTISADTSKNTAYLQMNSLRAEDTAVYYCARHGYGAMDYWGQGTLVTVSS
chain 2: DIQMTQSPSSLSASVGDRVTITCRASQSVSSAVAWYQQKPGKAPKLLIYSASSLYSGVPSRFSGSRSGTDFTLTISSLQPEDFATYYCQQSSYSLITFGQGTKVEIK
